{"source": "paper PMC2681181", "molecular_target": "Integrin β1 (human (endogenous in MCF-7 and MCF-10A)) (UniProt P05556)", "sequence (P05556 21-798)": "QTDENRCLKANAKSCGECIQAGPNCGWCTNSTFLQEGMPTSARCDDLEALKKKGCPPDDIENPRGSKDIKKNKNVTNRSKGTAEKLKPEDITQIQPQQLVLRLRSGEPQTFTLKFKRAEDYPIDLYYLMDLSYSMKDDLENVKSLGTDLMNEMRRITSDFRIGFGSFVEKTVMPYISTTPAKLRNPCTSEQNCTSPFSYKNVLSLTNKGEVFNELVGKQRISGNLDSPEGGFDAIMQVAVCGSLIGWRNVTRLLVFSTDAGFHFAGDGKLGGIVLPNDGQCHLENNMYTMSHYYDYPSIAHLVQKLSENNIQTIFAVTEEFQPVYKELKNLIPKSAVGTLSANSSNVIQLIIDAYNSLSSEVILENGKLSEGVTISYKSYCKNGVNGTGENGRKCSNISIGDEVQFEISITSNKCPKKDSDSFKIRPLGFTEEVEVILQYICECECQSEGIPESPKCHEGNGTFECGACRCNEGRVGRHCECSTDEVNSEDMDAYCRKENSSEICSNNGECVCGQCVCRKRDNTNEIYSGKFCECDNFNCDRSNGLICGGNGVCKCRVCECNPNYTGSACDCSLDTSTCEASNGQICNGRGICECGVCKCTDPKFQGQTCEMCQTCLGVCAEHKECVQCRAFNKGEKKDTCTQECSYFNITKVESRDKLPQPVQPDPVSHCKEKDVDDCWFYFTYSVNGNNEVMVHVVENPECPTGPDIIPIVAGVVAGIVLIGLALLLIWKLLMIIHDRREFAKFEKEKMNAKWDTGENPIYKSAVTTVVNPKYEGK", "test": "co-IP"}
{"substance": "type II collagen (from UniProt P02459 182-1241) (ligand)", "values": [{"measurement": "percent decrease of co-precipitated CII in the combined CII/LAM treatment", "result": 27.1, "unit": "%"}]}
{"substance": "laminin (from UniProt P02469 22-1786) (complex)", "values": [{"measurement": "percent decrease of co-precipitated LAM in the combined CII/LAM treatment", "result": 27.8, "unit": "%"}]}
{"substance": "Integrin α2 (from UniProt P17301 30-1181) (receptor)", "values": [{"measurement": "percent increase of co-precipitated INTα2 after combined CII/LAM treatment", "result": 53.8, "unit": "%"}]}
